This note sets out measurements from patent US20170224778A1, “COMPOSITIONS AND METHODS THAT TARGET REGULATION OF BREATHING” (The Board of Trustees of the Leland Stanford Junior …, priority 2016, published 2017).

Assay [1] addresses gastrin-releasing peptide receptor (GRPR) on mouse preBotC neurons (mouse) (UniProt P21729).
Assay [2] addresses gastrin-releasing peptide receptor (GRPR) on rat preBotC neurons (rat) (UniProt P52500).
For assay [3], the target named is T1, NMBR (Rattus norvegicus, UniProt P24053).
T1 construct: from tissue; host or cells: preBötC of the ventral medulla of living anesthetized Sprague Dawley rats
T1 sequence (P24053 1-390): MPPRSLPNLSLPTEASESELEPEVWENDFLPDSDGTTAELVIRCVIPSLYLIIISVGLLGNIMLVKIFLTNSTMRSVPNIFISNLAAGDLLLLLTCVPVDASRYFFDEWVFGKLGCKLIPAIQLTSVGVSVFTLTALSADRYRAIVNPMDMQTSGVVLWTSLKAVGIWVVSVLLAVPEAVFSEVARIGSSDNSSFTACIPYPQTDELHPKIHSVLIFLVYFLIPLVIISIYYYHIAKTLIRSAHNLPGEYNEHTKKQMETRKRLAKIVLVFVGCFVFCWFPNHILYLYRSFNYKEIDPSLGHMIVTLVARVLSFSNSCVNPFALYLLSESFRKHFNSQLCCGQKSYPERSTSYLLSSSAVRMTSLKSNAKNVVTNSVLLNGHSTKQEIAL
The experiment in a line: Sighing and breathing of urethane-anesthetized rats after bilateral preBötC injection (NMB pathway). It counts as in vivo. Particulars: 3 μM into preBötC. Here is the method: Sigh monitoring and analysis. For awake animals, individual animals were placed in a whole body plethysmography chamber (Buxco) at room temperature (22° C.) in 21% O2 (for normoxia) or 8% O2 (for hypoxic challenge) balanced with N2. Sighs were identified in plethysmography traces by the characteristic biphasic ramp, the augmented flow in the second phase of the inspiratory effort and the prolongation of expiratory time following the event. Sighs were also confirmed by visual monitoring of breathing behavior. Given the high amplitude and distinctive waveform of sighs relative to standard eupneic breaths, sighs were unambiguously identified by both visual and computer-assisted scoring; no difference was detected in direct comparisons between methods or observers so visual scoring was used. Female 8 week old mice (Nmbr^−/−, Grpr^−/−, or C57BL/6 as wild type control) were allowed to acclimate for 10 minutes in the chamber, and then the first fifteen recorded sighs were used to calculate the sigh rate. […] Rats were allowed to acclimate in the chamber for ˜1 hr, and then baseline sigh rate and respiratory frequency were calculated for the next 2 hrs. For hypoxic (8% O2) challenge, analysis was continued for 30 minutes under the hypoxic condition. For anesthetized rats, the trachea was cannulated and connected to a pneumotachograph (GM Instruments) to record airflow. A flow calibration was performed after every experiment along with a calculation of tidal volume (VT) by digital integration. To monitor diaphragm activity, wire electrodes (Cooner Wre) were implanted into the diaphragm and electromyogram (EMG) signal sampled at 2 kHz (Powerlab 16SP; AD Instruments). Signal was rectified and digitally integrated (time constant of 0.1) to obtain a moving average using LabChart Pro 8 (AD Instruments) and Igor Pro 6 (Data Matrix) software. Sighs were identified in the airflow measurements as above and validated by double peaks in the EMG recordings.
PreBötC injection of NMB and GRP agonists and antagonists. […]

Assay [4] deals with T2, NMBR (Mus musculus, UniProt O54799).
T2 construct: from tissue; host or cells: 550-μm transverse medullary slices with the preBötC, neonatal C57BL/6 mice (P0-5)
T2 sequence (O54799 1-390): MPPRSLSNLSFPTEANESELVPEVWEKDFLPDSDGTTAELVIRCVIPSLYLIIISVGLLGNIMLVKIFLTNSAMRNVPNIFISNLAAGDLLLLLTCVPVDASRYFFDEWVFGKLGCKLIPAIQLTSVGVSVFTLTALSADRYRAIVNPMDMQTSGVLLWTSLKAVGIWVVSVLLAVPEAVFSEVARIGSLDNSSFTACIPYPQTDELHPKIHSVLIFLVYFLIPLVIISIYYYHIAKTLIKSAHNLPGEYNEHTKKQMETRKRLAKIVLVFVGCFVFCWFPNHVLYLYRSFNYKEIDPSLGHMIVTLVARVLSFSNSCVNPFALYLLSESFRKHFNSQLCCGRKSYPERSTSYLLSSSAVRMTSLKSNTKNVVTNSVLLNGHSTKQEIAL
In words: Doublets (in vitro sigh signature) in explanted preBötC brain slices, NMB effect. It counts as cell-based. Particulars: for doublet frequency increase: neonatal mouse preBötC slices. Here is the method:
In vitro slice preparation, recording, and analysis. Rhythmic 550-μm-thick transverse medullary slices containing the preBötC and XII nerve from neonatal C57BL/6 mice (P0-5) were prepared as described previously (Kam et al., 2013). The medullary slice was cut in artificial cerebrospinal fluid (ACSF) containing (in mM): 124 NaCl, 3 KCl, 1.5 CaCl2, 1 MgSO4, 25 NaHCO3, 0.5 NaH2PO4, and 30 D-glucose, equilibrated with 95% O2 and 5% CO2 (4° C., pH=7.4). For recording, extracellular K+ was raised to 9 mM to replace excitatory afferent drive lost in the cutting process. Slices were perfused at 27° C. and 4 ml/min and allowed to equilibrate for 30 minutes. Respiratory activity reflecting suprathreshold action potential (AP) firing from populations of neurons was recorded as XII bursts from either XII nerve roots and as population activity directly from the preBötC using suction electrodes and a MultiClamp 700A or 700B (Molecular Devices, Sunnyvale, Calif., USA), filtered at 2-4 kHz and digitized at 10 kHz. Digitized data were analyzed off-line using custom procedures written for IgorPro (Wavemetrics, Portland, Oreg., USA). Activity was full-wave rectified and digitally integrated with a Paynter filter with a time constant of 20 ms with either custom built electronics or using custom procedures in MATLAB (Mathworks, Natick, Mass., USA). Burst detection and analysis of respiratory-related activity recorded in full-wave rectified XII output or preBötC population recordings were performed using custom software written in IgorPro. Burst parameters were normalized to the mode of the data in the baseline condition. Although there are several proposed definitions of sighs in slice preparations, here we used “doublets” (double-peaked bursts) as the in vitro signature of sighs because, in our preparations, doublets detected both in preBötC neural population activity measurements and cranial nerve XII output recordings shared the increased inspiratory and expiratory duration of sighs. […] All doublets were verified by visual inspection to exclude multipeaked bursts and two bursts that were too far apart. Measured doublet intervals were converted to a calculated per hour doublet rate.

Assay [5] deals with neuromedin B receptor (NMBR) on rat preBotC neurons (rat) (UniProt P24053).
The target in assay [6] is gastrin-releasing peptide receptor (GRPR) on rat preBotC neurons (rat) (UniProt P52500). The source holds these as a separate data set.
In assay [7] the target is neuromedin B receptor (NMBR) on rat preBotC neurons (rat) (UniProt P24053). This is another data set of the same source.
Assay [8] addresses gastrin-releasing peptide receptor (GRPR) on rat preBotC neurons (rat) (UniProt P52500). The source holds these as a separate data set.
For assay [9], the target named is neuromedin B receptor (NMBR) on rat preBotC neurons (rat) (UniProt P24053). This is another data set of the same source.
For assay [10], the target named is neuromedin B receptor (NMBR) on mouse preBotC neurons (mouse) (UniProt O54799).

“gastrin releasing peptide (GRP) neuropeptide”: the doublets (in vitro signature of a sigh) in mouse preBotC slices in assay [1] turned out to be 1.7 fold.
The substance GRPR antagonist RC3095 displayed a basal sigh rate after bilateral preBotC injection in anesthetized rats in assay [2] of 50%.
Consider neuromedin B [NMB], for which the “change in respiratory rate (frequency, f)” value in assay [3] (bilateral NMB injection 100 nl, anesthetized rat) is recorded as “little change”. For the same substance, the “sighing increased (fold)” value in assay [3] (bilateral microinjection 100 nl, anesthetized adult rats, n=5) is 6-17 fold. Besides, the “effect on sighing persisted after injection” value in assay [3] (bilateral microinjection 100 nl, effect peaked several minutes after injection) was in the range of 10 to 15 min. This substance displayed a doublet frequency increase in [4] (10 nM, p=0.005, n=7) of 1.7 fold. In assay [4] (30 nM, p=0.003, n=7), this substance had a doublet frequency increase of 2 fold. Further, the “overall frequency of bursts and doublets together” value in [4] (NMB on preBötC slices, p=0.2, n=7) is “unchanged”. In addition, in assay [4] (preBötC slice, p<0.05, n=7), the “fraction of total events that are doublets” value was “increasing” and the “interval following a doublet” value is reported as “decreasing”.
In [5], NMBR antagonist BIM23042 came in with a basal sigh rate after bilateral preBotC injection in anesthetized rats of 50%.
“bombesin-saporin (saporin conjugated with bombesin)”: the basal sigh rate after ablation of receptor-expressing preBotC neurons in rats in assay [6] and in assay [7] was 95% throughout. In addition, the hypoxia-induced sigh rate (8% O2) five days after injection in rats in assay [8] and in [9] was 5.1 h⁻¹ each time.
As for “saporin conjugated with a non-targeted peptide (blank SAP)”, the basal and hypoxia-induced sigh rate in control rats in assay [8] and in [9] was 140 h⁻¹ each time.
Take neuromedin B (NMB) neuropeptide: the doublet frequency (in vitro signature of a sigh) in mouse preBotC slices in assay [10] is 2 fold.
